Tests used:
[1] = target: T1, ZMYND11 PBP (PHD-Bromo-PWWP, aa74-371) (Mus musculus, UniProt Q8R5C8); test: ITC, ZMYND11 PBP domains; type: binding; conditions: n value fixed at 1
T1 sequence (Q8R5C8 74-371): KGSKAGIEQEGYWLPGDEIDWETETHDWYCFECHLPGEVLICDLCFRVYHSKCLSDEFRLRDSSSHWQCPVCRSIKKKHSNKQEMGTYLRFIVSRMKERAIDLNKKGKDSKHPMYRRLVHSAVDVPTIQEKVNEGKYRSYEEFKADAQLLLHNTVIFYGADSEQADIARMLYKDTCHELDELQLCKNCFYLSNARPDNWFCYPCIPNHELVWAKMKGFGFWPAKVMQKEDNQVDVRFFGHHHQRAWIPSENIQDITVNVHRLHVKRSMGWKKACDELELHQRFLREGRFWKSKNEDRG

[2] = target: T2, ZMYND11 BP (Bromo-PWWP, 154-371) (Mus musculus, UniProt Q8R5C8); test: ITC, ZMYND11 BP domains; type: binding; conditions: n value fixed at 1
T2 sequence (Q8R5C8 154-371): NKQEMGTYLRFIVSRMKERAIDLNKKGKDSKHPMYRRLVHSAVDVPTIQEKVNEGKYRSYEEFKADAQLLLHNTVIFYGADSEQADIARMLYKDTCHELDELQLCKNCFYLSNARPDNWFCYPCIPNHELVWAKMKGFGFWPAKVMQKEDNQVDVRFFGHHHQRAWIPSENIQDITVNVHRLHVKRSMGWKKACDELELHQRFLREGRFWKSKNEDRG

ZMYND11 PBP = test: Histone peptide pull-down, GST-ZMYND11 PBP; type: binding, mouse; conditions: mild buffer: 50 mM Tris-HCl 7.5, 200 mM NaCl, 0.05% NP-40, 1 mM PMSF

- Titration c-value [1]: 0.16
- Titration c-value [2]: 0.15
- peptide pull-down binding, mild buffer (ZMYND11 PBP): weak binding
Substance: H3.1K36me3: synthetic histone H3.1_19-42K36me3 peptide

— paper PMC4142212 (Nature, 2014)
